Target: PIK3R2/p85β (UniProt O00459)
Assay: anti-Myc IP, PIK3R2 immunoblot
Settings: reference: Myc-IRS4 wild type; sites Y779

Substance: IRS4 (insulin receptor substrate 4) (from UniProt O14654) Myc-IRS4 Y779F
- binding against the reference: weaker
